Results as given in patent US20090170763A1 (KENJI KANGAWA, published 2009).
Numbered stars: 1 amine (or outer) side, 2 acyl side, 3 side chain; on linkers, the order of the positions; unused ones are H or OH. Square brackets hold non-standard residues; d marks the D form. Ends that are not written are not given here. * marks the point of attachment. Ethylenediamine = C(CN[*:2])N[*:1]; Palmitoyl = CCCCCCCCCCCCCCCC(=O)*; Lauroyl = CCCCCCCCCCCC(=O)*; Decanoyl = CCCCCCCCCC(=O)*; Octanoyl = CCCCCCCC(=O)*; Hexanoyl = CCCCCC(=O)*; NHBn = c1ccc(CN*)cc1; Butyryl = CCCC(=O)*; Ava = NCCCCC(=O)O; Octyl = CCCCCCCC*

B1: [N-Octanoyl, Ser^3]-Ghrelin (1-9)-amide (peptide)
peptide: Octanoyl-GSSFLSPEH-NH2
SMILES: CCCCCCCC(=O)NCC(=O)N[C@@H](CO)C(=O)N[C@@H](CO)C(=O)N[C@@H](Cc1ccccc1)C(=O)N[C@@H](CC(C)C)C(=O)N[C@@H](CO)C(=O)N1CCC[C@H]1C(=O)N[C@@H](CCC(=O)O)C(=O)N[C@@H](Cc1c[nH]cn1)C(N)=O
B2: [Ser^2(Octanoyl), Ser^3]-Ghrelin (1-9)-amide (peptide)
peptide: GS(Octanoyl)SFLSPEH-NH2
modifications: N-terminus assumed
SMILES: CCCCCCCC(=O)OC[C@H](NC(=O)CN)C(=O)N[C@@H](CO)C(=O)N[C@@H](Cc1ccccc1)C(=O)N[C@@H](CC(C)C)C(=O)N[C@@H](CO)C(=O)N1CCC[C@H]1C(=O)N[C@@H](CCC(=O)O)C(=O)N[C@@H](Cc1c[nH]cn1)C(N)=O
B3: Ghrelin (1-9)-amide (peptide)
peptide: GSS(Octanoyl)FLSPEH-NH2
modifications: N-terminus assumed
SMILES: CCCCCCCC(=O)OC[C@H](NC(=O)[C@H](CO)NC(=O)CN)C(=O)N[C@@H](Cc1ccccc1)C(=O)N[C@@H](CC(C)C)C(=O)N[C@@H](CO)C(=O)N1CCC[C@H]1C(=O)N[C@@H](CCC(=O)O)C(=O)N[C@@H](Cc1c[nH]cn1)C(N)=O
B4: Ghrelin (1-7)-amide (peptide)
peptide: GSS(Octanoyl)FLSP-NH2
modifications: N-terminus assumed
SMILES: CCCCCCCC(=O)OC[C@H](NC(=O)[C@H](CO)NC(=O)CN)C(=O)N[C@@H](Cc1ccccc1)C(=O)N[C@@H](CC(C)C)C(=O)N[C@@H](CO)C(=O)N1CCC[C@H]1C(N)=O
B5: Ghrelin (1-4)-amide (peptide)
peptide: GSS(Octanoyl)F-NH2
modifications: N-terminus assumed
SMILES: CCCCCCCC(=O)OC[C@H](NC(=O)[C@H](CO)NC(=O)CN)C(=O)N[C@@H](Cc1ccccc1)C(N)=O
B6: Ghrelin (1-5)-amide (peptide)
peptide: GSS(Octanoyl)FL-NH2
modifications: N-terminus assumed
SMILES: CCCCCCCC(=O)OC[C@H](NC(=O)[C@H](CO)NC(=O)CN)C(=O)N[C@@H](Cc1ccccc1)C(=O)N[C@@H](CC(C)C)C(N)=O
B7: Ghrelin (1-8)-amide (peptide)
peptide: GSS(Octanoyl)FLSPE-NH2
modifications: N-terminus assumed
SMILES: CCCCCCCC(=O)OC[C@H](NC(=O)[C@H](CO)NC(=O)CN)C(=O)N[C@@H](Cc1ccccc1)C(=O)N[C@@H](CC(C)C)C(=O)N[C@@H](CO)C(=O)N1CCC[C@H]1C(=O)N[C@@H](CCC(=O)O)C(N)=O
B8: Ghrelin (1-6)-amide (peptide)
peptide: GSS(Octanoyl)FLS-NH2
modifications: N-terminus assumed
SMILES: CCCCCCCC(=O)OC[C@H](NC(=O)[C@H](CO)NC(=O)CN)C(=O)N[C@@H](Cc1ccccc1)C(=O)N[C@@H](CC(C)C)C(=O)N[C@@H](CO)C(N)=O
B9: [N-Aminopentanoyl,Ser^3(Octyl)]-Ghrelin (3-5)-amide (peptide)
peptide: [Ava]S(Octyl)FL-NH2
modifications: N-terminus assumed
SMILES: CCCCCCCCOC[C@H](NC(=O)CCCCN)C(=O)N[C@@H](Cc1ccccc1)C(=O)N[C@@H](CC(C)C)C(N)=O

What follows are molecules tested against rat GHS-R (GHS receptor) expressed on CHO-GHSR62 cells (rat) (UniProt O08725) (assay: cell-based or functional assay).
Sequence of rat GHS-R (GHS receptor) expressed on CHO-GHSR62 cells (rat) (O08725 whole entry): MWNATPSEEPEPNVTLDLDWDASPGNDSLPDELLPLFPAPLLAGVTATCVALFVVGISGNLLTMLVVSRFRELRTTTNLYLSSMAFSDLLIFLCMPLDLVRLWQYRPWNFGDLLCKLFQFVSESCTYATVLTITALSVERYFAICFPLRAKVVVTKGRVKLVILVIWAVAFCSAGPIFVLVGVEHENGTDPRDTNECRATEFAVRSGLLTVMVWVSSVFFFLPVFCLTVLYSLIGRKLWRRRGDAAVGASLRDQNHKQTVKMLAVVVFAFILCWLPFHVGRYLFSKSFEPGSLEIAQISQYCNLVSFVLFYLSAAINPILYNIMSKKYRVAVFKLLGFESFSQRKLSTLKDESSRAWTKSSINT

inhibition of the Ca-releasing activity of ghrelin | Activity EC50 | EC50 value | Molecule
100 µM | – | – | [D-Lys 3]-GHRP-6 (peptide)
– | 1600 nM | – | [N-Aminopentanoyl,^DSer^3(Octyl),^DPhe^4,Lys^5]-Ghrelin (3-5)-amide (peptide)
– | 2.5 nM | 2.5 nM | [Aib^1,His^2,^DNal^3,^DPhe^4,Lys^5]-Ghrelin (1-5)-amide (peptide)
– | 12 nM | – | [N-Aminopentanoyl,Ser^3(Octyl),Lys^5]-Ghrelin (3-5)-amide (peptide)

The molecules below were run against T1, rat GHS-R (GHS receptor) expressed on CHO-GHSR62 cells (rat, UniProt O08725 1-364) (assay: cell-based or functional assay).
T1 sequence (O08725 whole entry): as above

Ca-releasing activity (EC50, nM) | Molecule
16 nM | GSS(Hexanoyl)FLSPEHQKAQQRKESKKPPAKLQPR [[Ser^3(Hexanoyl)]-rGhrelin]
3.1 nM | GSS(Palmitoyl)FLSPEHQKAQQRKESKKPPAKLQPR [[Ser^3(Palmitoyl)]-rGhrelin]
7 nM | GSS(Octanoyl)FLSPEHQRVQQR [hGhrelin (1-15)]
19 nM | GSS(Octanoyl)FLSPEHQ [Ghrelin (1-10)]
100 nM | GSS(Octanoyl)FLSPE [Ghrelin (1-8)]
38 nM | GSS(Octanoyl)FLSPEH [Ghrelin (1-9)]
15 nM | GSS(Octanoyl)FLSPEHQR [hGhrelin (1-11)]
480 nM | GSS(Octanoyl)F [Ghrelin (1-4)]
8.6 nM | GSS(Octanoyl)FLSPEHQKAQQR [rGhrelin (1-15)]
2.6 nM | GSS(Decanoyl)FLSPEHQKAQQRKESKKPPAKLQPR [[Ser^3(Decanoyl)]-rGhrelin]
780 nM | GSS(Ac)FLSPEHQKAQQRKESKKPPAKLQPR [[Ser^3(Acetyl)]-rGhrelin]
15 nM | GSS(Octanoyl)FLSPEHQK [rGhrelin (1-11)]
280 nM | GSS(Butyryl)FLSPEHQKAQQRKESKKPPAKLQPR [[Ser^3(Butyryl)]-rGhrelin]

Biological target: T1, rat GHS-R (GHS receptor) expressed on …
Assay: cell-based or functional assay
Remark: another data set of the same source

Ca-releasing activity EC50 | Molecule
> 10000 nM | B1
1100 nM | B2
5.4 nM | B3
1400 nM | GS(Octanoyl)S(Octanoyl)FLSPEH-NH2 [[Ser^2(Octanoyl)]-Ghrelin (1-9)-amide]

Biological target: T1, rat GHS-R (GHS receptor) expressed on …
Assay: cell-based or functional assay
Remark: another data set of the same source

Ca-releasing activity EC50 | Molecule
16 nM | GSS(Hexanoyl)FLSPEHQKAQQRKESKKPPAKLQPR [[Ser^3(Hexanoyl)]-rGhrelin]
6.5 nM | GSS(Palmitoyl)FLSPEHQKAQQRKESKKPPAKLQPR [[Ser^3(Palmitoyl)]-rGhrelin]
3500 nM | GSSFLSPEHQKAQQRKESKKPPAKLQPR [[Ser^3]-rat Ghrelin]
1.7 nM | GSS(Decanoyl)FLSPEHQKAQQRKESKKPPAKLQPR [[Ser^3(Decanoyl)]-rGhrelin]
780 nM | GSS(Ac)FLSPEHQKAQQRKESKKPPAKLQPR [[Ser^3(Acetyl)]-rGhrelin]
280 nM | GSS(Butyryl)FLSPEHQKAQQRKESKKPPAKLQPR [[Ser^3(Butyryl)]-rGhrelin]
2.4 nM | GSS(Lauroyl)FLSPEHQKAQQRKESKKPPAKLQPR [[Ser^3(Lauroyl)]-rGhrelin]

Biological target: T1, rat GHS-R (GHS receptor) expressed on …
Assay: cell-based or functional assay
Remark: another data set of the same source

Ca-releasing activity EC50 | Molecule
7 nM | GSS(Octanoyl)FLSPEHQRVQQR [hGhrelin (1-15)]
8.6 nM | GSS(Octanoyl)FLSPEHQKAQQR [rGhrelin (1-15)]

Biological target: T1, rat GHS-R (GHS receptor) expressed on …
Assay: cell-based or functional assay
Remark: another data set of the same source

Ca-releasing activity EC50 | Molecule
2.6 nM | B4
160 nM | B5
19 nM | GSS(Octanoyl)FLSPEHQ [Ghrelin (1-10)]
100 nM | GSS(Octanoyl)FLSPE [Ghrelin (1-8)]
38 nM | GSS(Octanoyl)FLSPEH [Ghrelin (1-9)]
15 nM | GSS(Octanoyl)FLSPEHQR [hGhrelin (1-11)]
6.2 nM | B6
480 nM | GSS(Octanoyl)F [Ghrelin (1-4)]
> 10000 nM | Gly-Ser-Ser(Octanoyl)-NH2 (N-terminus assumed; SMILES CCCCCCCC(=O)OC[C@H](NC(=O)[C@H](CO)NC(=O)CN)C(N)=O) [Ghrelin (1-3)-amide]
68 nM | GSS(Octanoyl)FL [Ghrelin (1-5)]
13 nM | B7
4.8 nM | B8
15 nM | GSS(Octanoyl)FLSPEHQK [rGhrelin (1-11)]

Biological target: T1, rat GHS-R (GHS receptor) expressed on …
Assay: cell-based or functional assay
Remark: another data set of the same source

Activity EC50 | Molecule
4400 nM | GSLFLSPEHQRVQQRKESKKPPAKLQPR [[Leu^3]-hGhrelin]
120 nM | GSKFLSPEHQRVQQRKESKKPPAKLQPR [[Lys^3]-hGhrelin]
> 10000 nM | GSIFLSPEHQRVQQRKESKKPPAKLQPR [[Ile^3]-hGhrelin]
1600 nM | GSVFLSPEHQRVQQRKESKKPPAKLQPR [[Val^3]-hGhrelin]
31 nM | GSWFLSPEHQRVQQRKESKKPPAKLQPR [[Trp^3]-hGhrelin]
2000 nM | GSFFLSPEHQRVQQRKESKKPPAKLQPR [[Phe^3]-hGhrelin]

Biological target: T1, rat GHS-R (GHS receptor) expressed on …
Assay: cell-based or functional assay
Remark: another data set of the same source

Activity EC50 | Molecule
11 nM | B9
12 nM | [Ava]S(Octyl)FL-NHMe [[N-Aminopentanoyl,Ser^3(Octyl)]-Ghrelin (3-5)-methylamide]
3.5 nM | [Ava]S(Octyl)FL-Ethylenediamine [[N-Aminopentanoyl,Ser^3(Octyl)]-Ghrelin (3-5)-aminoethylamide]
22 nM | [Ava]S(Octyl)FL-NHEt [[N-Aminopentanoyl,Ser^3(Octyl)]-Ghrelin (3-5)-ethylamide]
98 nM | [Ava]S(Octyl)FL-NHBn [[N-Aminopentanoyl,Ser^3(Octyl)]-Ghrelin (3-5)-benzylamide]

These molecules were tested against amino-terminal antibody (anti-[C-Cys]-rat ghrelin [1-11] antigen) (assay: radioimmunoassay: inhibition of binding of radioisotope-labeled rat ghrelin to the amino-terminal antibody).

cross-reactivity | Molecule
100% | human ghrelin (peptide)
0.3% | GSS(Hexanoyl)FLSPEHQKAQQRKESKKPPAKLQPR [[Ser^3(Hexanoyl)]-rGhrelin]
20% | GSS(Decanoyl)FLSPEHQKAQQRKESKKPPAKLQPR [[Ser^3(Decanoyl)]-rGhrelin]
